The target of data set [1] is T1, Bgl3B (Rasamsonia emersonii, UniProt A0A343J2C3).
T1 construct: pPIC9, secreted from Pichia pastoris GS115; N-glycosylated, about 100 kDa on SDS-PAGE
T1 sequence (A0A343J2C3 1-841): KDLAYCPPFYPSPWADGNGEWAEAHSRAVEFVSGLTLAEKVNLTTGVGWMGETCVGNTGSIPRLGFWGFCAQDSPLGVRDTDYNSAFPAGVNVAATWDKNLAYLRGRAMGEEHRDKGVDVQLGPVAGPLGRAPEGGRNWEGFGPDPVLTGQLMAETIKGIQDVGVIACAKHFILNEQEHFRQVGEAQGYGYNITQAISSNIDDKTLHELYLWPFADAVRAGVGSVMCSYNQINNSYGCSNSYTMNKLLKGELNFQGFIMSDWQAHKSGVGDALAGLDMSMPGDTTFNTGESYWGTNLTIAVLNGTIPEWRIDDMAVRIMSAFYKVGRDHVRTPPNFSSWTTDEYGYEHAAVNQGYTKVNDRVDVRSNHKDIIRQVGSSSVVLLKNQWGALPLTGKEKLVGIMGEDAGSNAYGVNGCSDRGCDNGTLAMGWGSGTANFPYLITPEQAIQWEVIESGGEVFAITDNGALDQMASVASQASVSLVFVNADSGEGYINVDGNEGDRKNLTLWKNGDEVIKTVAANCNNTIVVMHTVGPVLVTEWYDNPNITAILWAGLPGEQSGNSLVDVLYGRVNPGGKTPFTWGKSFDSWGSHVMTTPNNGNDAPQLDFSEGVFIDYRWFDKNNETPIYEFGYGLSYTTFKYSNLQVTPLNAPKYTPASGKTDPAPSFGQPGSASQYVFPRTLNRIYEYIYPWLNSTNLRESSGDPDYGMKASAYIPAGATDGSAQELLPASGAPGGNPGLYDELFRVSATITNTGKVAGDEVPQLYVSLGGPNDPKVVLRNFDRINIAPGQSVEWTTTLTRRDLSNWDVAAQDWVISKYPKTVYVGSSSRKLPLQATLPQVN
Put plainly: pNP release at […] nm, Dixon plot. The data set is classed as biochemical. The conditions noted are these: substrate pNPG 3 or 4 mM; pH 4.5, 65°C, citric acid-Na2HPO4; inhibition mode not stated.

Substrate in data set [2]: O=[N+]([O-])c1ccc(O[C@@H]2O[C@H](CO)[C@@H](O)[C@H](O)[C@H]2O)cc1
Nature of the data set: purified protein. The conditions noted are these: pH 4.5, 65°C, 5 min, 0.2-1.5 mM substrate.

On to `OC[C@H]1OC(O)[C@H](O)[C@@H](O)[C@@H]1O` (stereo partly drawn) [glucose], for which the inhibition constant (Ki) (as a rule, a dissociation constant, usually derived from enzyme kinetics or from competition with a known ligand) in data set [1] stood at 7.1 mM.

B1: Bgl3B (Rasamsonia emersonii) (protein)
chain: T1 sequence (A0A343J2C3 1-841)
B1: in data set [2], the Michaelis constant (Km) (commonly the concentration of substrate that gives half-maximal velocity) amounted to 1030 µM; the kcat (usually the number of substrate molecules converted per active site and unit of time at saturation) was 714 s⁻¹.
